Patent US20030119038A1, “NARC1, novel subtilase-like homologs” (priority 1999, published 2003)
“Also recorded” adds a separate entry of the source. Read-outs that look alike come from different tables or passages of the source.

What was measured:
NARC1 transfectants = test system: NARC1 transfectants
Procedure: Following transient expression of this construct in CGNs, the percentage of GFP positive and GFP negative cells undergoing apoptosis was determined by Laser-Scanning Cytometry.
Following transient expression of the wild-type and point-mutant NARC1 constructs in CGNs, the percentage of GFP-positive cells undergoing apoptosis was determined by Laser-Scanning Cytometry.
The serine protease inhibitors Aminoethyl-benzene sulfonyl fluoride, an irreversible inhibitor (AEBSF), Aprotinin, a reversible inhibitor, and N-Tosyl-lysine-chloromethylketone (TLCK, an inhibitor known to covalently bind to serine proteases) were investigated to see if any of these reagents can rescue the cell death effects of wild-type NARC1. Caspase 9 transfection was included to test for specificity of any rescue effects.
CGNs were transfected with each of the C-terminal truncation mutants described above. Following transient expression of these constructs, the percentage of GFP positive cells undergoing apoptosis was determined by Laser-Scanning Cytometry.

[1] = test system: cerebellar granule neurons (CGNs); experiment: Apoptosis after transient expression of NARC1-EGFP constructs in CGNs, Laser-Scanning Cytometry; type: cell-based, rat; details: for Resulting Cell Death Activity: EGFP construct transiently expressed in CGNs, percentage of GFP-positive cells undergoing apoptosis; for BAF sensitivity of induced cell death: CGNs, 100 μM BAF
Description: Cerebellar granule neurons (CGNs) were transfected with a NARC1-enhanced green fluorescent protein (EGFP) expression construct (with the EGFP sequences located at the carboxy terminus of the fusion protein). Unless otherwise indicated, the construct utilized in the following experiments contained 2073 base pairs of the rat NARC1 transcript set forth in FIG. 5. Specifically, this corresponds to nucleotides 205-2277 and amino acid residues 56-746 of SEQ ID NO:4 and SEQ ID NO:3, respectively. The polypeptide sequence encoded by the NARC1 insert utilized herein has been set forth as SEQ ID NO:9 herein. The nucleotide sequence of this insert has been set forth as SEQ ID NO:10.
To investigate NARC1-mediated neuronal cell death, transient expression of the EGFP clones was carried out in cerebellar granule neurons (CGNs). These studies are set forth in detail as follows.

NARC1 = experiment: Autoprocessing of NARC1 transiently expressed in COS-7 cells, Western blotting; type: cell-based, rat; details: C-terminal myc/His fusion transiently expressed in COS-7 cells, 60 kD processing product on Western blot
Procedure: The wild-type NARC1-myc/His clone was transiently expressed in COS-7 cells. The cells were then harvested, lysed, and the protein extracted. Polyacrylamide gel electrophoresis was then carried out on the protein extracts, followed by Western blotting. The resulting membranes were probed using both anti-myc- and NARC1-specific antibodies. Routine techniques and protocols were followed. See, e.g., Ausubel et al.(1998), supra.
This cleavage event maps to approximately the junction between the pro-domain and the enzymatic domain.
Autoprocessing of NARC1 was investigated as follows. COS-7 cells were co-transfected with the following EGFP and myc plasmids: (A) wild-type NARC1-myc and wild-type NARC1-EGFP; (B) S385A NARC1-myc and S385A NARC1-EGFP; and (C) wild-type NARC1-myc and S385A NARC1-myc. The cells were then harvested, lysed, and the protein extracted. Polyacrylamide gel electrophoresis was then carried out on the protein extracts, followed by Western blotting. The resulting membranes were sequentially probed using first the anti-myc and then the anti-EGFP monoclonal antibodies (Abs). Thus, the experiment allowed sequential detection of the separate NARC1 products encoded from the two co-transfected plasmids.
As indicated above, a series of C-terminal truncation mutants were generated. The truncation NARC1-myc/His clones were transiently expressed in COS-7 cells. The cells were then harvested, lysed, the protein extracted, and polyacrylamide gel electrophoresis carried out on the protein extracts. Western analysis was then carried out using both anti-myc and NARC1-specific antibodies.

Row | Molecule | Rescue of cell death in NARC1 transfectants (NARC1 transfectants; 24-hour exposure) | Rescue of cell death in NARC1 transfectants (NARC1 transfectants; 48-hour exposure) | Resulting Cell Death Activity [1] | Autoprocessing Activity (NARC1) | BAF sensitivity of induced cell death [1] | Autoprocessing Activity (NARC1; listed as V507 C-terminal truncation mutant) | Autoprocessing Activity (NARC1; listed as V507 truncation)
1 | Aprotinin | some suggestion of rescue | increased effectiveness |  |  |  |  | 
2 | Deletion of residues Q218-A392, inclusive: NARC1 subtilase deletion, small; removes much of the subtilase domain including active site residues (protein, mutant of rat sequence deletion mutant removes Gln218-Ala392, inclusive, of SEQ ID NO9) MGIRCSTWLRWPLSPQLLLLLLLCPTGSRAQDEDGDYEELMLALPSQEDSLVDEASHVATATFRRCSKEAWRLPGTYVVVLMEETQRLQVEQTAHRLQTWAARRGYVIKVLHVFYDLFPGFLVKMSSDLLGLALKLPHVEYIEEDSLVFAQSIPWNLERIIPAWQQTEEDSSPDGSSQVEVYLLDTSIQSGHREIEGRVTITDFNSVPEEDGTRFHRGIVAMMLNRDPALTLAELRQRLILFSTKDVINMAWFPEDQRVLTPNRVATLPPSTQETGGQLLCRTVWSAHSGPTRTATATARCAPEEELLSCSSFSRSGRRRGDRIEAIGGQQVCKALNAFGGEGVYAVARCCLLPRVNCSIHNTPAARAGPQTPVHCHQKDHVLTGCSFHWEVENLRAQQQPLLRSRHQPGQCVGHQEASVHASCCHAPGLECKIKEHGIAGPAEQVTVACEAGWTLTGCNVLPGASLPLGAYSVDNVCVARIRDAGRADRTSEEATVAAAICCRSRPSAKASWVHQ |  |  | Reduced activity. | Absence of processing. |  |  | 
3 | C-terminal truncation V507: NARC1 terminating at residue V507; much of the CRR removed (protein, mutant of rat sequence truncated mutant ends at amino acid Val507, NARC1 terminating at residue V507; much of the CRR removed) MGIRCSTWLRWPLSPQLLLLLLLCPTGSRAQDEDGDYEELMLALPSQEDSLVDEASHVATATFRRCSKEAWRLPGTYVVVLMEETQRLQVEQTAHRLQTWAARRGYVIKVLHVFYDLFPGFLVKMSSDLLGLALKLPHVEYIEEDSLVFAQSIPWNLERIIPAWQQTEEDSSPDGSSQVEVYLLDTSIQSGHREIEGRVTITDFNSVPEEDGTRFHRQASKCDSHGTHLAGVVSGRDAGVAKGTSLHSLRVLNCQGKGTVSGTLIGLEFIRKSQLIQPSGPLVVLLPLAGGYSRILNTACQRLARTGVVLVAAAGNFRDDACLYSPASAPEVITVGATNAQDQPVTLGTLGTNFGRCVDLFAPGKDIIGASSDCSTCYMSQSGTSQAAAHVAGIVAMMLNRDPALTLAELRQRLILFSTKDVINMAWFPEDQRVLTPNRVATLPPSTQETGGQLLCRTVWSAHSGPTRTATATARCAPEEELLSCSSFSRSGRRRGDRIEAIGGQQV |  |  | Induces wild type | Marked increase in | insensitive. | markedly increased level of autoprocessing | increased rate of processing
4 | H225W: Full-length NARC1 point mutant; mutation of the active site histidine (protein, mutant of rat sequence mutating amino acid His225Trp of SEQ ID NO9) MGIRCSTWLRWPLSPQLLLLLLLCPTGSRAQDEDGDYEELMLALPSQEDSLVDEASHVATATFRRCSKEAWRLPGTYVVVLMEETQRLQVEQTAHRLQTWAARRGYVIKVLHVFYDLFPGFLVKMSSDLLGLALKLPHVEYIEEDSLVFAQSIPWNLERIIPAWQQTEEDSSPDGSSQVEVYLLDTSIQSGHREIEGRVTITDFNSVPEEDGTRFHRQASKCDSWGTHLAGVVSGRDAGVAKGTSLHSLRVLNCQGKGTVSGTLIGLEFIRKSQLIQPSGPLVVLLPLAGGYSRILNTACQRLARTGVVLVAAAGNFRDDACLYSPASAPEVITVGATNAQDQPVTLGTLGTNFGRCVDLFAPGKDIIGASSDCSTCYMSQSGTSQAAAHVAGIVAMMLNRDPALTLAELRQRLILFSTKDVINMAWFPEDQRVLTPNRVATLPPSTQETGGQLLCRTVWSAHSGPTRTATATARCAPEEELLSCSSFSRSGRRRGDRIEAIGGQQVCKALNAFGGEGVYAVARCCLLPRVNCSIHNTPAARAGPQTPVHCHQKDHVLTGCSFHWEVENLRAQQQPLLRSRHQPGQCVGHQEASVHASCCHAPGLECKIKEHGIAGPAEQVTVACEAGWTLTGCNVLPGASLPLGAYSVDNVCVARIRDAGRADRTSEEATVAAAICCRSRPSAKASWVHQ |  |  | essentially a wild-type phenotype; also recorded: no effect on the cell death phenotype | reduces autoprocessing; also recorded: Reduced processing |  |  | 
5 | Deletion of residues L147-M425, inclusive: NARC1 subtilase deletion, large; removes entire subtilase domain (protein, mutant of rat sequence deletion mutant removes amino acids Leu147-Met425, inclusive, of SEQ ID NO9, NARC1 subtilase deletion, large; removes entire subtilase domain) MGIRCSTWLRWPLSPQLLLLLLLCPTGSRAQDEDGDYEELMLALPSQEDSLVDEASHVATATFRRCSKEAWRLPGTYVVVLMEETQRLQVEQTAHRLQTWAARRGYVIKVLHVFYDLFPGFLVKMSSDLLGLALKLPHVEYIEEDSAWFPEDQRVLTPNRVATLPPSTQETGGQLLCRTVWSAHSGPTRTATATARCAPEEELLSCSSFSRSGRRRGDRIEAIGGQQVCKALNAFGGEGVYAVARCCLLPRVNCSIHNTPAARAGPQTPVHCHQKDHVLTGCSFHWEVENLRAQQQPLLRSRHQPGQCVGHQEASVHASCCHAPGLECKIKEHGIAGPAEQVTVACEAGWTLTGCNVLPGASLPLGAYSVDNVCVARIRDAGRADRTSEEATVAAAICCRSRPSAKASWVHQ |  |  | Reduced activity. | Absence of processing. |  |  | 
6 | C-terminal truncation Q453: NARC1 terminating at residue Q453; most of the CRR removed (protein, mutant of rat sequence truncated sequence ends at amino acid Gln453) MGIRCSTWLRWPLSPQLLLLLLLCPTGSRAQDEDGDYEELMLALPSQEDSLVDEASHVATATFRRCSKEAWRLPGTYVVVLMEETQRLQVEQTAHRLQTWAARRGYVIKVLHVFYDLFPGFLVKMSSDLLGLALKLPHVEYIEEDSLVFAQSIPWNLERIIPAWQQTEEDSSPDGSSQVEVYLLDTSIQSGHREIEGRVTITDFNSVPEEDGTRFHRQASKCDSHGTHLAGVVSGRDAGVAKGTSLHSLRVLNCQGKGTVSGTLIGLEFIRKSQLIQPSGPLVVLLPLAGGYSRILNTACQRLARTGVVLVAAAGNFRDDACLYSPASAPEVITVGATNAQDQPVTLGTLGTNFGRCVDLFAPGKDIIGASSDCSTCYMSQSGTSQAAAHVAGIVAMMLNRDPALTLAELRQRLILFSTKDVINMAWFPEDQRVLTPNRVATLPPSTQETGGQ |  |  | Induces wild type | Normal processing. | insensitive. |  | 
7 | C-terminal truncation M425: NARC1 terminating at residue M425; all of the cysteine-rich region removed (protein, mutant of rat sequence truncated sequence ends at amino acid Met 425, NARC1 terminating at residue M425; all of the cysteine-rich region removed) MGIRCSTWLRWPLSPQLLLLLLLCPTGSRAQDEDGDYEELMLALPSQEDSLVDEASHVATATFRRCSKEAWRLPGTYVVVLMEETQRLQVEQTAHRLQTWAARRGYVIKVLHVFYDLFPGFLVKMSSDLLGLALKLPHVEYIEEDSLVFAQSIPWNLERIIPAWQQTEEDSSPDGSSQVEVYLLDTSIQSGHREIEGRVTITDFNSVPEEDGTRFHRQASKCDSHGTHLAGVVSGRDAGVAKGTSLHSLRVLNCQGKGTVSGTLIGLEFIRKSQLIQPSGPLVVLLPLAGGYSRILNTACQRLARTGVVLVAAAGNFRDDACLYSPASAPEVITVGATNAQDQPVTLGTLGTNFGRCVDLFAPGKDIIGASSDCSTCYMSQSGTSQAAAHVAGIVAMMLNRDPALTLAELRQRLILFSTKDVINM |  |  | Induces wild type | Normal processing. | insensitive. |  | 
